Measured values from US12616711B2, “Therapeutic dendrimer” (Starpharma Pty Ltd, priority 2019, dated 2026).

How the values were obtained:
[1] = Gemcitabine release from dendrimers in PBS; format: physicochemical; settings: PBS pH 7.4, 37° C.
Protocol: A study was carried out to determine the rate of gemcitabine release from dendrimer compounds in PBS and citrate buffer. Gemcitabine-conjugated dendrimers of the present disclosure, and a comparative example dendrimer, were each dissolved in PBS Buffer (2 mL, 10 mM, pH 7.4) or Citrate Buffer (2 mL, 0.1 M, pH 4.5) and held at 37° C. Samples were then analysed by injecting 5 μL of the solution on HPLC. At various time points, samples were analysed by HPLC. HPLC (C8 XBridge, 3×100 mm), gradient: 5% ACN/H2O (0-1 min), 5-80% ACN (1-7 min), 80% ACN (7-12 min), 80-5% ACN (12-13 min), 5% ACN (13-15 min), 243 nm, 10 mM ammonium formate buffer, 0.4 mL/min.

A549 tumour xenografts = experiment: A549 lung adenocarcinoma mouse xenograft (Example 15); format: in vivo; settings: 3 at 6 mg/kg weekly, Gemcitabine 120 mg/kg twice weekly, 3 weeks i.v.
Protocol: A A549 (human adenocarcinomic human alveolar basal epithelial) cell line was used to assess the anti-tumour efficacy properties of 3. NSG mice were inoculated and tumours sized as described above. On day 30 after implantation, mice with similar sized tumours (mean tumour volume 100 mm^3) were randomised into four groups of 10 animals for each tumour type. Gemcitabine and 3 were prepared as described above.
Gemcitabine was administered twice weekly and dendrimer was administered weekly for 3 weeks via tail vein i.v. injection, at 0.1 ml/10 g body weight.

BxPC3 cells = experiment: alamarBlue viability assay, GI50; format: cell-based; settings: BxPC-3; 144 h; given in μM Gemcitabine
Protocol: (§1) A study was carried out to determine the ability of example dendrimers to inhibit growth of cancer cell lines using an alamarBlue viability assay (Thermo Fisher, DAL1025).
(§2) The cytotoxicity of compounds toward MDA-MB-231, A549, H460, BxPC3 and CAPAN-1 cells were evaluated for viability. Cells were seeded at a density of 1.2-5×10^3 cells, dependent on cell growth rate, in 96 well plates and incubated overnight. Cells were then treated with serial dilutions of test compositions for 72 h (MDA-MB-231, A549 and H460 lines) or 144 h (BxPC3 and CAPAN-1 lines). For cell viability analysis, 10% media volume of alamar Blue was added during the final 6-8 h of incubation. Reduction of alamarBlue in living cells yields a red fluorescent metabolite that can be read on a plate reader (560 nm excitation/610 nm emission.). Cell viability and subsequent GI50 values were was determined from the blank corrected dose-response curves, with 4-parameter nonlinear curve fit, in GraphPad Prism.

H460 cells = experiment: alamarBlue viability assay, GI50; format: cell-based; settings: 72 h, given in μM Gemcitabine
Protocol: as §1, §2

[BHA Lys][Lys]30[Lys]32 [Compound 3, [BHA Lys][Lys]30[Lys]32 [(α-NH-TDA-Gemcitabine)32 (ε-NHPEG˜2100)32]]
% Gemcitabine released in PBS ([1]; 0 h): 0% | % Gemcitabine released in PBS ([1]; 0.08 h): 3.95% | % Gemcitabine released in PBS ([1]; 2 h): 11.23% | % Gemcitabine released in PBS ([1]; 4 h): 16.6% | % Gemcitabine released in PBS ([1]; 6 h): 21.99% | % Gemcitabine released in PBS ([1]; 8 h): 25.64% | % Gemcitabine released in PBS ([1]; 10 h): 30.03% | % Gemcitabine released in PBS ([1]; 12 h): 33.17% | % Gemcitabine released in PBS ([1]; 24 h): 46.36% | % Gemcitabine released in PBS ([1]; 26 h): 48.07% | % Gemcitabine released in PBS ([1]; 28 h): 51.24% | % Gemcitabine released in PBS ([1]; 30 h): 53.41% | % Gemcitabine released in PBS ([1]; 32 h): 54.48% | % Gemcitabine released in PBS ([1]; 34 h): 55.8% | % Gemcitabine released in PBS ([1]; 36 h): 57.52% | anti-tumour efficacy compared to Gemcitabine (FIG. 8) (A549 tumour xenografts): more effective than Gemcitabine | GI50 (BxPC3 cells): 0.008 µM | GI50 (H460 cells): 0.077 µM
